# Data from US9809653B2, “Anti-LAMP1 antibodies and antibody drug conjugates, and uses thereof” (SANOFI, priority 2012, dated 2017).
# B1: MAb1: murine monoclonal anti-LAMP1 antibody, VH SEQ ID NO: 1, VL SEQ ID NO: 5 (antibody, V domains shown)
# VH: QVQLQQSGAELVKPGASVKMSCKASGYIFTNYNIHWVKKSPGQGLEWIGAIYPGNGDAPYSQKFKDKATLTADKSSSTTYMQLSRLTSEDSAVYYCVRANWDVAFAYWGQGTLVSVSA
# VL: DIQMTQSPPSLSASLGGKVTITCKASQDIDRYMAWYQDKPGKGPRLLIHDTSTLQPGIPSRFSGSGSGRDYSFSISNLEPEDIATYYCLQYDNLWTFGGGTKLEIK
# modifications: Antibody Fragment; antibody fragment
# B2: MAb2: murine monoclonal anti-LAMP1 antibody, VH SEQ ID NO: 8, VL SEQ ID NO: 12 (antibody, V domains shown)
# VH: QVQLQQSAAELARPGASVKMSCKASGYTFTSYTMHWVKQRPGQGLEWIGYFNPSSGYPEYNQKFKDKTTLTADKSSNTAFIQLNSLTSEDSAVYYCSRGYYYGSRGYALDFWGQGASVTVSS
# VL: NIVLTQSPVSLAVSLGQRATISCRASESVDINGNTFMHWYQQKPGQSPKLVIYAASNIESGVPARFSGSGSSTDFTFTIDPVEADDVATYYCQQNIEDPWTFGGGTKVEIK
# modifications: antibod fragment; antibody fragment
# How the values were obtained:
# [1] = system: Colon Colo205 tumoral cells expressing LAMP1; assay: Internalization score by ImageStream multispectral imaging flow cytometer; type: cell-based, human; conditions: Colo205, 10 μg/ml AlexaFluor488-labeled antibody
# Source text: The internalization score (IS) is defined as a ratio of the fluorescence intensity inside the cell to the intensity of the entire cell. […] The higher the score, the greater the fluorescence intensity is inside the cell. As described by Amnis (see the world wide web at amnis.com), the inside of the cell is defined by an erosion of a mask that fits the membrane of the cell. The score is invariant to cell size and can accommodate concentrated bright regions and small dim spots. The ratio is mapped to a logarithmic scale to increase the dynamic range to values between {−inf, inf}. The thickness of the membrane (in pixels) determines which pixels are used to define the boundary and the membrane portions of the cell. The user supplies an ‘internal’ mask based on the brightfield image that covers the inside of the cell, the thickness of the membrane in pixels and the fluorescent channel of interest. The cell is divided into 2 regions: External (B) and internal (I). The user supplies the internal region as the mask. The external region is determined by: 1. Dilating the internal mask by the membrane thickness. 2. Combining 1 with the object mask of the channel of interest. 3. External region equals mask 2 and not the internal mask. Next, the mean intensity of the upper quartile of the pixels in each region is determined. The Internalization Score (IS) is then computed as follows:
# Cells were washed by centrifugation with PBS 1% BSA at 400 g for 5 minutes. Cells were fixed and permeabilized using 100 μL of Perm/Fix buffer on ice for 20 minutes. Cells were washed by centrifugation with 1 mL of Perm/Wash Cell buffer at 400 g for 5 minutes.
# To test whether internalized antibodies accumulate in lysosomes, simultaneous uptake of mAbs and AlexaFluor647-labeled CD107a (a lysosomal marker) were carried out. […] After incubation, 1 mL Perm/Wash Cell buffer was added to wash, before centrifuging (400 g, 5 min). The supernatant was flicked from the plate before the cells were fixed with 200 μL 1% formaldehyde on ice for 20 minutes. The fluorescence of cells was analyzed with the ImageStream multispectral imaging flow cytometer (Amnis corp.) using the Internalization feature. Five thousand events were acquired for each experimental condition and the corresponding images were analyzed using the IDEAS image-analysis software.
# [2] = target: T1, LAMP1 in FFPE colon adenocarcinoma PDX CR-LRB-010P and human breast carcinoma (Homo sapiens, UniProt P11279); assay: IHC on FFPE tumor tissue, LAMP1 membrane reinforcement; conditions: FFPE samples
# T1 construct: from tissue; host or cells: human tumoral and non-tumoral tissue sections and PDX tumour sections (frozen-OCT, AFA, FFPE)
# T1 sequence (P11279 29-417): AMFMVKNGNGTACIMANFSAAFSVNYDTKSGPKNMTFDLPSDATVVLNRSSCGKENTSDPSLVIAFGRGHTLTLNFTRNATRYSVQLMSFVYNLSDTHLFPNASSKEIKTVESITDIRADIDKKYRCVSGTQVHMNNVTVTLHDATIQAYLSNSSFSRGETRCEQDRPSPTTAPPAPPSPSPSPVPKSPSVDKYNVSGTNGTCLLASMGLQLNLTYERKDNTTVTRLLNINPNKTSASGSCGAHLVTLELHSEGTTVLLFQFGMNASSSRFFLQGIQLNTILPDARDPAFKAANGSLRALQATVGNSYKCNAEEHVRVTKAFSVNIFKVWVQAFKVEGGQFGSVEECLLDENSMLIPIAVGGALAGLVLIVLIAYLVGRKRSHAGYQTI
# Source text: IHC analysis of tumor tissues from biobanks or from hospitals before or during patient treatment is routinely done with formalin-fixed paraffin-embedded (FFPE) samples. […] One of the reasons is probably the effect of the formalin fixative combined to the complexity of the protein. Samples processed in frozen OCT or AFA are not routinely prepared in hospitals. Therefore, there is a need to have a mAb that would allow complete and fast coverage of the FFPE tumor biobanks and hospital samples.
# Rabbit polyclonal antibodies generated with peptides described in example 17.1.1 were tested by IHC on FFPE sample of colon adenocarcinoma patient derived xenograft CR-LRB-010P and human breast carcinoma. After antigen retrieval procedure and endogen biotins blocking steps, slides were incubated with the primary anti-antibody for 1 hour at 24° C. Negative controls were performed by omission of the primary antibody. The biotin free anti-rabbit UltraMap™ horseradish peroxidase (HRP) conjugate (760-4315, Ventana Medical Systems, Inc, USA) was used as secondary antibody system according to manufacturer's recommendations. A couterstaining step was done with hematoxylin (760-2037, Ventana Medical Systems, Inc, USA) and bluing reagent was applied (760-2037, Ventana Medical Systems, Inc, USA). Stained slides were dehydrated and coverslipped with cytoseal XYL (8312-4, Richard-Allan Scientific, USA).
# As the same manner as in example 17.1.2, IHC screening was performed with the hybridoma supernatant to identify mouse monoclonal antibody showing LAMP1 membrane reinforcement on FFPE sample of colon adenocarcinoma patient derived xenograft CR-LRB-010P. The biotin free anti-mouse UltraMap™ horseradish peroxidase (HRP) conjugate (760-152, Ventana Medical Systems, Inc, USA) was used as secondary antibody system according to manufacturer's recommendations.
# [3] = target: T2, cell surface LAMP1 on Patient-derived tumor xenografts and tumor cell lines (Homo sapiens, UniProt P11279); assay: Antibody binding capacity (ABC) by FACS on patient-derived xenografts and tumor cell lines
# T2 construct: endogenous in cells; host or cells: enzymatically dissociated patient-derived xenograft tumour cells (e.g. CR-IGR-034P, LUN-NIC-014P, BRE-IGR-0159) and tumour cell lines
# T2 sequence (P11279 29-417): T1 sequence (P11279 29-417)
# Protocol: Antibody binding capacity of antibody was determined using Mouse IgG Calibrator kit (Biocytex #7208) or Human IgG Calibrator Kit (Biocytex #CP010) according to the manufacturer's instructions.
# The panel of tumor cells comprises Patient-derived tumor xenografts from different origins and tumor cell lines. FIG. 2 illustrates the expression profile and Table 4 summarizes the antibody binding capacity results.
# The panel of tumor cells comprises Patient-derived tumor xenografts from different origins and tumor cell lines.
Molecule,"Internalization score (IS) 4° C., 4 hr [1]","Internalization score (IS) 37° C., 4 hr [1]",LAMP1 membrane reinforcement in FFPE format by IHC [2],Antibody Binding Capacity (ABC) ([3]; CR-IGR-034P/colorectal PDX),Antibody Binding Capacity (ABC) ([3]; CR-LRB-003P/colorectal PDX),Antibody Binding Capacity (ABC) ([3]; CR-LRB-010P/colorectal PDX),Antibody Binding Capacity (ABC) ([3]; Colo205/colon cell line),Antibody Binding Capacity (ABC) ([3]; LS174T/colon cell line),Antibody Binding Capacity (ABC) ([3]; LUN-NIC-014/lung PDX),Antibody Binding Capacity (ABC) ([3]; LUN-NIC-025/lung PDX),Antibody Binding Capacity (ABC) ([3]; OVA-IGR-0022/ovary PDX),Antibody Binding Capacity (ABC) ([3]; STO-IND-006/stomach PDX),Antibody Binding Capacity (ABC) ([3]; SW480/colon cell line)
B1,0.22,2.22,can not lead to the detection of LAMP1 reinforcement in FFPE format,"230,000",25 000,"140,000","6,000","6,000","104,000","33,000","67,000","90,000","2,500"
B2,0.19,2.24,can not lead to the detection of LAMP1 reinforcement in FFPE format,"180,000",22 000,"95,000","4,000","3,600","102,000","27,000","60,000","64,000","1,700"
